Experimental data as given in PMC7924223, “Functionalization of the BCL6 BTB domain into a noncovalent crystallization chaperone” (IUCrJ, 2021).

Molecular target: BCL6 BTB domain (BCL6^BTB), residues 6-129 with C8Q, C67R and C84N (human, UniProt P41182 6-129, C8Q | C67R | C84N)
Assay: crystal structure; co-crystallization at 298 K; BCL6 proteins at 300 µM (monomer) in 20 mM HEPES pH 7.5, 300 mM NaCl, 3 mM β-mercaptoethanol; NCoR1^BBD1 peptide in 4:1, NCoR1^BBD2 peptide in 8:1 molar excess; the complex with nebulin^SH3-NCoR1^BBD1 purified by size-exclusion chromatography before crystallization
Conditions: both partners purified

B1: NCoR1^BBD1 peptide (high-affinity BCL6-binding domain 1 of the corepressor NCoR1) (peptide)
peptide: GITTIKEMGRSIHEIPR
notes: source: synthetic peptide (GL Biochem Shanghai Ltd)
binding result: binds
